Like-named read-outs stand apart in the source and are kept apart here.
Legend:
[1] = PK analyses of serum and intra-tumoral levels from xenograft studies; assay type: in vivo, mouse; conditions: serum from animals of the xenograft studies
Source text: The data (obtained using the methods described above or minor variations thereof) from three different models derived from human tumor cell lines, AdrR (ovarian), Du145 (prostate) and OvCAR8 (ovarian) data are shown in FIGS. 17A-C and Colo357 (pancreatic) xenograft study data are shown in FIG. 17D.

[2] = target: T1, ErbB3 receptor on the surface of MALME-3M cells (Homo sapiens, UniProt P21860); assay: cell surface fluorescence quenching assay (timecourse of ErbB3 downregulation); assay type: cell-based
T1 construct: ErbB3 expressed on MALME-3M melanoma cells; host or cells: MALME-3M melanoma cells
Description: In order to determine whether this downregulation of ErbB3 is due to internalization of the ErbB3 receptor on the surface of MALME-3M cells, a cell surface fluorescence quenching assay is preformed. MALME-3M cells are plated overnight on 6-well plates (0.2×10^6 per well) in RPMI+10% FBS. The following day, old medium is removed and cells are preincubated for 60 minutes on ice in RPMI+2% FBS containing 100 nM of Ab#6 conjugated to the fluorescent dye Alexa 488. Cells are then returned to a 37° C. incubator and incubated for 0.5 h, 2 h or 24 h. At the end of each timepoint, cells are trypsinized, washed with PBS+2% BSA+0.1% sodium azide (FACS stain buffer) and stored on ice until all samples are ready. For a Oh timepoint, cells are immediately trypsinized after the 60 minute preincubation and stored on ice. […] One set of tubes is incubated with 25 ug/ml anti-Alexa 488 antibody for 60 minutes on ice to quench any fluorescence source (i.e., Alexa 488-conjugated Ab#6) on the cell surface. […] For each sample 10,000 events are collected and analyzed with a FACSCALIBUR flow cytometer. This protocol gives an indication of what proportion of AB #6 (as measured by fluorescence) remains on the cell surface (indicated by the differential between the fluorescence of the quenched and unquenched cells at each timepoint) and how much is internalized (indicated by the level of fluorescence of quenched cells).

MCF-7 cells = assay: trans-well cell migration assay; assay type: cell-based, human; conditions: 8 uM Ab #6, 10% FBS chemoattractant, 16 hours
Description: The cells are then transferred to an upper chamber that is separated from a lower chamber by a collagen type I-coated membrane through which the cells can migrate. […] The chambers are incubated at 37° C. for 16 hours and then the cells that migrate through the membrane into the lower chamber are removed using a detachment buffer and incubated with a cell-binding fluorescent dye. Fluorescence is quantitated using a fluorescent plate reader.

[3] = tested on: heregulin-mediated phosphorylation of ErbB3 and AKT in MALME-3M cells; assay: heregulin-mediated signaling ELISA (pErbB3, pAKT); assay type: cell-based, human; conditions: for IC50: IgG2 isotype, 5 nM HRG
Description: MALME-3M cells and OVCAR8 cells are separately seeded in 96 well tissue culture plates (35,000 cells per well) and grown in RPMI-1640 media supplemented with antibiotics, 2 mM L-glutamine and 10% FBS for 24 hours at 37° C. and 5% carbon dioxide. Cells are serum-starved in RPMI-1640 media with antibiotics and 2 mM L-glutamine for 24 hours at 37° C. and 5% carbon dioxide. […] Controls are HRG without added antibody and untreated cells (no HRG and no Ab). Cells are washed with cold PBS then harvested with mammalian protein extract (M-PER) lysis buffer (Pierce, 78505) containing 150 mM NaCl, 5 mM sodium pyrophosphate (Sigma, 221368-100G), 10 uM bpV(phen) (Calbiochem, 203695), 50 μM oxophenylarsine (Calbiochem, 521000), 1 mM sodium orthovanadate (Sigma, 56508-10G), and protease inhibitor cocktail (Sigma, P2714). Cell lysates are diluted two-fold with 4% bovine serum albumin in PBST (0.2% tween-20), then analyzed by ELISA for phosphorylation of either ErbB3, or AKT (a downstream effector of ErbB3).
In order to test for AKT phosphorylation, lysates are run on an ELISA plate with a capture antibody specific to AKT and biotinylated detection antibody specific to phospho-serine 473 of phospho-AKT (pAKT). Signal is generated with streptavidin conjugated to horseradish-peroxidase reacted with SUPERSIGNAL ELISA Pico chemiluminescent substrate (Pierce, 37070). In order to assay for ErbB3 phosphorylation, lysates are run on an ELISA plate with a capture antibody specific for ErbB3 and an anti-phosphotyrosine detection antibody conjugated to horseradish-peroxidase. This is then reacted with the same chemiluminescent substrate. Luminescent signal on the ELISAs is measured using a luminometer.

[4] = tested on: HGF induced ErbB3 phosphorylation in AdrR cells; assay: HGF induced ErbB3 phosphorylation in AdrR cells; assay type: cell-based, human
Description: Various ligands are tested for inducement of ErBb3 phosphorylation. At least three ligands, HRG, BTC, and HGF, are able to stimulate ErbB3 induced phosphorylation in AdrR cells, while EGF can not. […] Further, as known in the art (see, e.g., Wallenius et al. (2000) Am J Pathol. 156 (3):821-9), enhanced HGF signaling has been reported in various epithelial and non-epithelial tumors.
c-MET-ErbB3 interactions also occur in AdrR cells carrying the wild type EGFR and is not dependent on amplified c-MET.

OVCAR8 spheroids = assay: spheroid growth assay; assay type: cell-based, human; conditions: OVCAR8, 25 μg/ml on days 1 and 4
Description: Subconfluent cells are trypsinized, counted, and resuspended in filtered medium. The cell concentration is adjusted to 100,000 cells/ml, and one 20 ul drop (containing 2000 cells) is added to each ring on the underside of the lid of a 96-well plate. The lids with these hanging droplets are then placed back on the original 96-well plate, which contained 100 ul of PBS in each well to maintain moisture. Four days after initial plating, the hanging droplets containing the spheroids are replated into new 96-well plates. This replating involves transferring the lid containing the hanging droplets to a fresh 1% agarose/RPMI-coated 96-well plate that contains 150 ul of medium per well. The plate and lid are then centrifuged together at 500 rpm for 1 minute to transfer the spheroid-containing drops from the lids to the wells. Plates are then further incubated at 37° C. in a humidified CO2 incubator. Spheroids are photographed in an inverted phase contrast microscope. A micrometer scale is also photographed at the same magnification to determine spheroid size. The diameter of the spheroids is determined using METAMORPH image analysis software (MDS Analytical Technologies).
Multicellular tumor spheroids are generated as before.

[5] = target: T2, AdrR cells expressing ErbB3 receptor (Homo sapiens, UniProt P21860); assay: HRG and BTC binding to AdrR cells by FACS; assay type: cell-based
T2 construct: host or cells: AdrR (NCI/AdrR) ovarian cancer cells

B1: Ab #6: human anti-ErbB3 antibody from Fab-phage library, CDRs SEQ ID NOs:7-12; used as IgG1 and IgG2 isotypes; in phase I trials as MM-121 (antibody, V domains shown)
VH: EVQLLESGGGLVQPGGSLRLSCAASGFTFSHYVMAWVRQAPGKGLEWVSSISSSGGWTLYADSVKGRFTISRDNSKNTLYLQMNSLRAEDTAVYYCTRGLKMATIFDYWGQGTLVTVSS
VL: QSALTQPASVSGSPGQSITISCTGTSSDVGSYNVVSWYQQHPGKAPKLIIYEVSQRPSGVSNRFSGSKSGNTASLTISGLQTEDEADYYCCSYAGSSIFVIFGGGTKVTVL
serum retention [1]: dose-dependent increase in the serum retention | downregulation of cell surface ErbB3 receptors ([2]; after about 30 minutes): about 50% | downregulation of cell surface ErbB3 receptors ([2]; at about 24 hours): about 93% | inhibition of FBS induced cell migration (MCF-7 cells): inhibits the FBS induced cell migration | extent of inhibition of phosphorylation of AKT and ErbB3 ([3]; FIGS. 16A-D, MALME-3M cells and OVCAR8 cells): essentially complete inhibiton | inhibition of heregulin-mediated signaling ([3]; MALME-3M cells): potent inhibitor of heregulin-mediated signaling | IC50 ([3]; MALME-3M cells, read-out: IC50, heregulin-mediated phosphorylation of ErbB3): 15 nM | IC50 ([3]; MALME-3M cells, read-out: IC50, phosphorylation of AKT): 11 nM | inhibition of HGF induced ErbB3 phosphorylation ([4]; AdrR cells): inhibits HGF induced ErbB3 phosphorylation | IC50 ([4]; HGF induced ErbB3 phosphorylation in AdrR cells (FIG. 28)): 0.244 nM | decrease in spheroid area (OVCAR8 spheroids): 30-40% | competition with BTC for binding to AdrR cells [5]: competes with HRG but not BTC | competition with HRG for binding to AdrR cells [5]: competes with HRG
